Measurements as given in the DeepSol protein solubility set.

Experiment: soluble on expression in E. coli; label from the status in PepcDB or PDB records

Sequence	soluble on expression in E. coli
SLSFSSKVKSEVCRYDDYSKGEAIAVLSAVMKASGTLALEGNRKISFKIITENPAIARLIFKLLKKYFDIHTEIMMKKSNSLKKNNVYVVSITEDMGVRELLKTVGVMKNEDGIVTLSYDIPEFVVKDDESRKMYIRGAFLGGGSVSNPEKMYHLEFVTHNEDYASNLRDLINTYGLNSKVIQRKNSYVVYIKEGEQVVDLLNIIGAHSSLLELENIRIIKEMRNNINRLVNCETANLSKTVNASVRQIESIKLIEKQIGLSRLPENLREVAKLRLNYPDESLKELGKMLEPPVGKSGVNHRLRKIEKIAEELRKEGR	soluble
MGSDKIHHHHHHMVRVRFAPSPTGFLHVGGARTALFNFLFARKEKGKFILRIEDTDLERSEREYEEKLMESLRWLGLLWDEGPDVGGDHGPYRQSERVEIYREHAERLVKEGKAYYVYAYPEEIEEMREKLLSEGKAPHYSQEMFEKFDTPERRREYEEKGLRPAVFFKMPRKDYVLNDVVKGEVVFKTGAIGDFVIMRSNGLPTYNFACVVDDMLMEITHVIRGDDHLSNTLRQLALYEAFEKAPPVFAHVSTILGPDGKKLSKRHGATSVEAFRDMGYLPEALVNYLALLGWSHPEGKELLTLEELISSFSLDRLSPNPAIFDPQKLKWMNGYYLRNMPIEKLAELAKPFFEKAGIKIIDEEYFKKVLEITKERVEVLSEFPEESRFFFEDPAPVEIPEEMKEVFSQLKEELQNVRWTMEEITPVFKKVLKQHGVKPKEFYMTLRRVLTGREEGPELVNIIPLLGKEIFLRRIERSLGG	soluble
MSFNPTRDDFEALLNDSMGGRDFAEGTVVKGKVVGIEKDFAIIDVGLKTEGRVQLKEFGVDENGKATVKAGDTVEVFLERLENAMGEAVISREKAKREEAWTRLEGVYARNEPVMGAIVGRVKGGFTVDLGGASAFLPGSQVDIRPVRDVGPLMGKEQPFAILKMDRPRGNIVVSRRAILEEARAEQRTELVSQLQEGEIREGVVKNITDYGAFVDLGGIDGLLHVTDMSWKRVNHPSQVLAVGDTVKVQIVKINPDTQRISLGMKQLQSDPWDGVEAKYPVGAKFTGRITNITDYGAFVELEAGVEGLVHVSEMSWTKKNVHPGKIVSTSQEVDVVVLDVDPSKRRVSLGLKQALANPWEAFLEAHPVGSTVEGEVKNATEFGLFVGLDNDIDGMVHLSDIDWSVPGEEAMARYKKGDMVKAKVLDVDVEKERISLGIKQLAGDPMSGDTYRKNQTVTVTVTEVTSGGIEVRFGEDDAPMTAFIRKSDLSRDRQEQRPERFAVGDRVDAQITNVDKAARRVSLSIKSLEMAEEKEAIEQFGSSDSGASLGDILGAALRERASKD	soluble
GGSSRHQFDLIMCLKQPGVQTGLLCEKCDGKCPICDSYVRPKRKVRVCENCSFGKQAKNCIICNLNVGVNDAFYCWECCRLGKDKDGCPRILNLGSNRLDRHFEKKKKV	soluble
LSFSSAVKNELCRVETDRSSSLFELAAAARISGLIKVVNANEINLRLVTENAAFARRIFSQIKDLYGINAEISIRRSPKLKKNIVYIIVLTSSKGLMRILEDINIKVSEKVEYIPYARCMRKKEYRKAYLRGAFLASGSMSDPEKTYHLEITCHNMALATEVSDLMDSFKLHSKVTKRKGNYVVYLKEGENIVDFLNIIGAHSALLELENIRILKEMRNNVNRIVNCETANLQKTVDASVRQVENINYIKEHLGFDKLPENLREIAKMRLAYSDATLKELGEMLNPPLGKSGVNHRLRKLDKIAESLRNMKGEL	soluble
MNRVDLSIFIPDSLTAETGDLKIKTYKVVLIARAASIFGVKRIVIYHDDADGEARFIRDILTYMDTPQYLRRKVFPIMRELKHVGILPPLRTPHHPTGKPVTGEYRQGLTVKRVKKGTLVDIGADKLALCREKLTVNRIMSFRVVRLGKEILIEPDEPEDRYWGYEVLDTRRNLAESLKTVGADVVVATSRNASPITSILDEVKTRMRGAREAAILFGGPYKGLPEIDADIWVNTLPGQCTETVRTEEAVLATLSVFNMLTQIDEKDE	soluble
MSSIVCHPILDSQNGIATDAVIKKQRPPPLVLSRPKDLIQEACQRLVLSDQQLRRIMQSMEKSMEQGLATSTKKVAVKMLPTYVDSVPNGTESGDFLALDLGGTNFRVLHIKLQGKETKMTGKIFRVPESIMRGTGEALFDHIAGCMAKFMGENDLKDAQKLPLGFTFSFPCEQEGLTKGKLVTWTKGFKASGVEGVDVVTLLHEACHRRKDIDIDVVALLNDTVGTLMACAFQENSCQIGVIVGTGTNACYMERLDRIPKLAGYVDEHGVTPEEMIINTEWGAFGDDGALDFLRTEWDEVVDRESINPGQHLYEKMISGMYMGECARVVLEDLAKQGLLFGGNSDAISVPHCFPTKFVSEIDSDLLEDDDRTFQKTYQILEDIGVEMITANDCANVAYVCSLISTRAAHLTAAGIAMLLNRMNKKHVTVGVDGSVYRFHPTYPTLLDAKIGELIVGDIEYKLMLSEDGSGRGAALVAAVATRLKEEKLAASLSSSSSNQ	not soluble
MGDVIKVLDAQVRESLSGLPELHINFRARIILNPEDPRVDSIPPLEEVRIATYTRKKIGDIEPGDRFIEIRGTIAKVYRVLTYDACPECKKKVDYDPGTGVWICPEHGEVEPIKMTILDFGLDDGTGYIRVTLFGDDAEELLGVSSEEIAEKIKELENSGLTTKEAARKLAEEEFYKIIGKEIVVRGNVIEDRFLGLILRASSWEEVDYRKEIENIKEELEKLGVMLEHHHHHH	soluble
SAMKPTAGPTTNADLTSAPPHDIFISHAWEDKADFVEALAHTLRAAGAEVWYDDFSLRPGDSLRRSIDKGLGSSRFGIVVLSTHFFKKEWPQKELDGLFQLESSGRSRILPIWHKVSKDEVASFSPTMADKLAFNTSTKSVDEIVADLMAIIRD	soluble
MSAAPGTISPPARELKTSAICGYLHRIEVRSIGLITRRRYWFALCDSTPYLYWYKDSDDIKCIGRVSLSGAAFTYDPREKGRFEIHSNNEVIALECSSDKQRNEWMKALQSTRKRSWKATKSKSDSSLDISSLTGRNSSSVLEECSSPSPVPPPRSPKPKKRTQFLTEEETDAETSSDVPHSSEETAEVVEDTDNTKIPAEGSATEWYLNPNGQLNERSLQMPKTIESPETVLKRLADQSIEAPFRAIRRNLSTWSRSRQNTSDEPVVGSRKGTVSSVDLTPEEKVIELSDKVSSLEEVVDSLRAALLLAQRNNEALQKIEDMGDNKEEMREYILEKERQVTELHISNSMNARRVRDLEDQNVRLEDTINDLQQSVEAFRESLRTKEELILRMCEEENREDLLGSISERSSNIPADANGLVSDVEVPEGILVDVSSVDCEEATRKVLDEENVRDIGELQDLVEGYRTQNQFLNAEIVQLHAITQSLEDREKKLIRQNFDLEACYYQLKSRYLMVLNHFKSPTKPGKIMEPGVLKELLEESARTPRESQQNLTDQLGFYKKDDFSESDDLLDTATFYMKKAGDVVEATKLEQSEEYMKWLQSWDAFLVNNTVSRQTAIMSSPDLKTLIRTGVPPAYRGRVWKIIVTHWVKDKQAELGNGYYQSMLRKAGTKKQDGSYDAAIKQIDLDLARTLPTNKLFDEPDSANIEKLRNVLYAFRYHNSHVGYCQGLNRLAAIALLNLDEQDSFWFLVACVEHLQPEGYYTSSLIGAVADQKVLRDLVAEKLPKLAAHLRALEVDLSLFALSWFLTCFVDVLPHSIYLTIFDAFLYEGNKVLFRFALALFKICEPHVLQCKTIGTVHQCLSKAQEHIIDFKSLAQVAFNELNPFPQKTIETKRQLYLTQLKDTGHCM	not soluble
MAYLERAYFGLQCFWGESAWAKLKGVVVTRVGYAGGKQPNPTYKNIKDHTEITEITFDPKVIEYSKLTNFFWKHHNPAERRKKQYQSAILYVNDDQKKVAEETLKVAKDKHGDIETYIEPLDKFYQAEDYHQKYWFRQKKILFDELSLLDTQVAEGELATKLNAYCAGFQDFHDLERLAKEYGLKDSFVNKVKDYALSGGDPRNCHA	not soluble
MDNLLNEKKLTIFTSNEIQDNLNRVLKDYEQNGIIGLNGYLNQANRISLLNELEIMQKDAEQDIARYWNNKIIHFYSKDPLKPESVDREYVTEPYFQASSNKAHVFYEVIDNMRVVNRIGHGMHLINRYPMMQRAVYDSPVLLDLLKGIGFKKPICHLSVYIPKYPNGIGSEVRPHQESTFAFTEPQSVVVLWVALEDALIENACMYGVLGSNHWPLKWVSKVDRETKTRHFEQVHQLHIPDFMTEREFYTALEVKAGDALLFHGNFVHCSPMNTSKNSRKALSFQFIETYEVDYPETNWLYPPNKVYLYLEHHHHHH	not soluble
MVLDQGDVISRINEGAISSSLEDLAKETGKEVRFVTIHRLDYGETPESFAQALFEKWFPSKEAQANQILLVLDTVTNGTAIITGDEVKPLLTDTIANSVAEETLAAPLRDGNKYNQAFLDASDRLVAVLSGQPDPGPPQIVDKLEHHHHHH	soluble
MAAQKSALILLPPEDAEEIEVIVTGDVLVRGGLQVLYAGSSTEPVKCAKGARIVPDVALKDVKNKTFDIIIIPGGPGCSKLAECPVIGELLKTQVKSGGLIGAICAGPTVLLAHGIVAERVTCHYTVKDKMTEGGYKYLDDNVVISDRVITSKGPGTAFEFALKIVETLEGPEKTNSLLKPLCLAK	not soluble
MRTFDLTAALGDRANQPEISRLLVAQLMTSNNEDTRKLRRAQEREQTQELNELAHRLAGMASLIHAHAVERACHQLEIACGESSVRKLADAVDDLVTALGELQCELHDWMTMTAPQGTAKS	not soluble
MLAVGIVGLPNVGKSTLFNALTRANALAANYPFATIDKNVGVVPLEDERLYALQRTFAKGERVPPVVPTHVEFVDIAGLVKGAHKGEGLGNQFLAHIREVAAIAHVLRCFPDPDVVHVMGRVDPLEDAEVVETELLLADLATLERRLERLRKEARADRERLPLLEAAEGLYVHLQEGKPARTFPPSEAVARFLKETPLLTAKPVIYVANVAEEDLPDGRGNPQVEAVRRKALEEGAEVVVVSARLEAELAELSGEEARELLAAYGLQESGLQRLARAGYRALDLLTFFTAGEKEVRAWTVRRGTKAPRAAGEIHSDMERGFIRAEVIPWDKLVEAGGWARAKERGWVRLEGKDYEVQDGDVIYVLFNA	soluble
MLDKIIEIIMTILPFLGNRKKRKAMAQDVKEFSELVKDQYTFLMEQLEKVLKDYFDLSARVKEMHTEIFSLREQLAQAATLQCVNKECLQRTQSEASISEA	not soluble
MSLAKLPVGGIWKARLVLNEMQWSPYIKVATFSADITLDVTDKNNGAIYLPAFGSATPRVDLNLRTQPLSTAPGGEVSGQANIDMCLYDGYNSNSPWLKVALSDLQTVAGRPADVFSLRRDGSSGTAAADRVDYRITLNYNNQPQTVNNGQDITLASVNSTLIRPVVMPGIAFPVICTPTPLTLNVLPFAKLSKAAGHFSGTLRVTLSADALAEGHHHHHH	not soluble
SGEKSENCGVPEDLLNGLKVTDTQEAECAGPPVPDPKNQHSQSKLLRDDEAHLQEDQGEEECFHDCSASFEEEPGADKVENKSNEDVNSSELDEEYLIELKKNMSDEEKQKRREESTRLKEEGNEQFKKGDYIEAESSYSRALEMCPSCFQKERSILFSNRAAARMKQDKKEMAINDCSKAIQLNPSYIRAILRRAELYEKTDKLDEALEDYKSILEKDPSIHQAREACMRLPKQIEERNERLKEEMLGKLKDLGNLVLRPFGLSTENFQIKQDSSTGSYSINFVQNPNNNR	soluble
MEEKKALRNRIKKLLRSQPEQQRKEGSQRVADILFSLPEWNEAHAIGITISLPHEVQTELIISRGWEEGKQIAVPRVKKGTTQMTFYEIHSFSVLEDTFFGLREPKPSECRQIDGQELDLLLVPGVAFDQKGNRLGYGGGYYDRFLHSYKGKTIALAYSQQLVESVPTDERDERVQMIVTERGVYRLEHHHHHH	soluble
